The conditions of data set [1]: bovine proteins; cited from earlier work.
The test system of data set [2] is human neutrophils. The data set can be described thus: Rate of NETs formation in PMA-stimulated neutrophils after pre-treatment, counted by confocal microscopy. The format is cell-based.
For data set [3], the system named is histone-induced thrombus (DIC) model mice. As to the kind of experiment: Survival rate/lifetime extension of histone-induced thrombus (DIC) model mice. The format is in vivo, mouse. As to conditions: 20 mg/kg i.v. 30 minutes before histone 80 mg/kg, n=8; control: one alive; p=0.0005. On the procedure:
80 mg/kg of histone (sigma, H9250) dissolved in physiological saline and left at 37° C. was intravenously administered to the tails of 11 week old male C57BL/6 mice to create DIC model mice (Tobias A. et al., blood, 29 Sep. 2011, vol. 118, no. 13, pp. 3708-3714). As a pre-treatment, 20 mg/kg of bovine lactoferrin was intravenously administered to the tails of the mice, and 30 minute later, histone was intravenously administered to the tails of the mice (n=8). These mice were labeled as a group of mice provided with therapy with lactoferrin. To the tails of different mice (n=8), 100 μl of physiological saline not containing bovine lactoferrin was intravenously administered, and 30 minutes later, histone was intravenously administered. These mice were labeled as a control group of mice provided with no therapy. The survival rate/lifetime extension after the administration of histone was evaluated by use of the Kaplan-Meier method. The control group of mice provided with no therapy gradually started to die about 20 minutes after the administration of histone. Two days later, two mice were alive, and 4 days later, one mouse was alive. By contrast, the 8 mice in the group provided with therapy with bovine lactoferrin were all alive even 4 days later. […]

Data set [4] deals with histone-induced thrombus model mice. The data set can be described thus: Bleeding in lung tissues of histone-induced thrombus model mice. The format is in vivo, mouse. As to conditions: 20 mg/kg i.v. 30 minutes before histone 80 mg/kg, n=4, ten minutes after histone. On the procedure: As a pre-treatment, 20 mg/kg of bovine lactoferrin was intravenously administered to the tails of 11 week old male C57BL/6 mice, and 30 minute later, 80 mg/kg of histone (sigma, H9250) dissolved in physiological saline and left at 37° C. was intravenously administered to tails of the mice to create DIC model mice (n=4) (Tobias A., et al., Blood, 29 Sep. 2011; vol. 118: no. 13, pp. 3708-3714). For control group mice with no therapy (n=4), 100 μl of physiological saline not containing bovine lactoferrin was intravenously administered to the tails 30 minutes before histone was intravenously administered. For healthy control group mice (n=4), physiological saline, instead of the bovine lactoferrin used for the pre-treatment and also instead of histone, was administered. Ten minutes after the administration of histone (second administration of physiological saline), the mice were put to euthanasia. Lung tissues were extracted and immobilized by use of 4% paraformaldehyde.

The test system of data set [5] is human neutrophils. The data set can be described thus: Specificity experiment: inhibition of NETs formation by DNA concentration in the culture supernatant. The format is cell-based. As to conditions: n=3, p<0.01, FIG. 10. As to the method: About 1 hour after the isolation of the neutrophils described in “1. Method of isolating human neutrophils” in Example 2, the neutrophils were pre-treated. On an 8-well microslide (Cat. No. ib 80826 Ibidi (registered trademark)), the neutrophils were seeded in 400 μl of culture DMEM+2% human serum Alb (serum human albumin; Product No. A9080 Sigma+4 mM L-glutamine) at a rate of about 1.0×10^5 cells/well, and stimulated with PMA (final concentration: 25 nM, stock: 10 mM in DMSO, Sigma Prod No. P8139). At thirty minutes before the stimulation, and at every one hour or every two hours after the stimulation, 200 μg/ml of human lactoferrin (stock: 100 mg/ml, 200 μl; Cat. No. SIGL6793, SIGMA) was added to perform inhibition [FIG. 2].
The culture supernatant was recovered and centrifuged at 200×g for 10 minutes, and the supernatant was transferred to a new microscopic centrifuge tube. The DNA amount was measured by use of Picogreen dsDNA assay reagent (P11496 Invitrogen) in accordance with an accompanying protocol. Treatment with human lactoferrin at one hour and two hours after the stimulation was a similar effect to the prior pre-treatment, the DNA concentration in the culture supernatant decreased, resulting in suppression of the release of the DNAs by the NETs [FIG. 2]. […]

Data set [6] has as its system histone-induced thrombus model mice. The data set can be described thus: Bleeding time duration in histone-induced thrombus model mice. It is filed as in vivo, mouse. As to conditions: 20 mg/kg i.v. 30 minutes before histone 60 mg/kg, n=5, vs no therapy; p<0.0001. As to the method: As a pre-treatment, 20 mg/kg of bovine lactoferrin was intravenously administered to the tails of 11 week old male C57BL/6 mice, and 30 minute later, 60 mg/kg of histone (sigma, H9250) dissolved in physiological saline and left at 37° C. was intravenously administered to the tails of the mice to check the effect of hemostasis on the DIC model mice (n=5) (Tobias A, et al., Blood, 2011; 118: pp. 3708-3714) (75% of the amount of histone used for improving the survival rate/lifetime extension was adopted). For control group mice without therapy (n=5), 100 μl of physiological saline not containing bovine lactoferrin was intravenously administered to the tails 30 minutes before the administration of histone. For healthy control mice (n=5), physiological saline, instead of the bovine lactoferrin used for the pre-treatment and also instead of histone, was administered. Twenty minutes after the administration of histone, the vein of the tail of each mouse was cut at a position 3 mm from the end, and immersed in a 37° C. physiological saline. At every 30 seconds, the blood was wiped off with a filter paper, and the bleeding time duration was measured (in the case where the bleeding time duration was 15 minutes or longer, the bleeding time duration was recorded as 15 minutes and a hemostasis treatment was performed) (Fuchs T A, et al., Blood, 2011; 118:3708-3714).

B1: bovine lactoferrin: bovine lactoferrin (Product No. 123-04124 WAKO); in Example 9 eluted from crude bovine milk protein; cow lactoferrin SEQ ID NO 2 (protein, listed as Bos taurus)
chain: MKLFVPALLSLGALGLCLAAPRKNVRWCTISQPEWFKCRRWQWRMKKLGAPSITCVRRAFALECIRAIAEKKADAVTLDGGMVFEAGRDPYKLRPVAAEIYGTKESPQTHYYAVAVVKKGSNFQLDQLQGRKSCHTGLGRSAGWIIPMGILRPYLSWTESLEPLQGAVAKFFSASCVPCIDRQAYPNLCQLCKGEGENQCACSSREPYFGYSGAFKCLQDGAGDVAFVKETTVFENLPEKADRDQYELLCLNNSRAPVDAFKECHLAQVPSHAVVARSVDGKEDLIWKLLSKAQEKFGKNKSRSFQLFGSPPGQRDLLFKDSALGFLRIPSKVDSALYLGSRYLTTLKNLRETAEEVKARYTRVVWCAVGPEEQKKCQQWSQQSGQNVTCATASTTDDCIVLVLKGEADALNLDGGYIYTAGKCGLVPVLAENRKSSKHSSLDCVLRPTEGYLAVAVVKKANEGLTWNSLKDKKSCHTAVDRTAGWNIPMGLIVNQTGSCAFDEFFSQSCAPGADPKSRLCALCAGDDQGLDKCVPNSKEKYYGYTGAFRCLAEDVGDVAFVKNDTVWENTNGESTADWAKNLNREDFRLLCLDGTRKPVTEAQSCHLAVAPNHAVVSRSDRAAHVKQVLLHQQALFGKNGKNCPDKFCLFKSETKNLLFNDNTECLAKLGGRPTYEEYLGTEYVTAIANLKKCSTSPLLEACAFLTR
Take B1: the Isoelectric point in data set [1] is 8.2-8.9. Besides, the “rate of the NETs formed at plateau, compared with stimulation merely with PMA” value in the data set with human neutrophils [2] (pre-treatment 2 μg/ml for 30 minutes, then PMA 25 nM) is “half”; in the data set on human neutrophils [2] (pre-treatment 20 μg/ml for 30 minutes, then PMA 25 nM), “half”. Also, the “formation of the NETs at plateau, compared with stimulation merely with PMA” value in the data set on human neutrophils [2] (pre-treatment 200 μg/ml for 30 minutes, then PMA 25 nM) is given as “¼”. Further, the “inhibitory effect on the formation of the NETs” value with human neutrophils [2] (pre-treatment with 2, 20 or 200 μg/ml, FIG. 1-A, 1-B) was “concentration-dependent manner”. Further, the “mice alive 4 days after histone” value in data set [3] worked out at 8 mice. For the same molecule, the “bleeding in lung tissues” value in data set [4] was “not observed to bleed almost at all”. In addition, the “inhibition of the formation of the NETs” value with human neutrophils [5] is listed as “inhibited”. Further, in data set [6], the bleeding time duration entry is “significantly shorter”.

(Values after patent US20220031813A1, “INHIBITOR OF EXTRACELLULAR TRAP FORMATION IN LEUKOCYTES” (priority 2013, published 2022).)
